Test results reported in article doi:10.1101/2020.08.17.254268.

Target: CeOSM-3 kinesin-2 motor, SNAP-tagged and labelled (CeOSM-3^SNAP647) (C. elegans) (UniProt P46873)
Sequence of UniProt P46873 (P46873 whole entry): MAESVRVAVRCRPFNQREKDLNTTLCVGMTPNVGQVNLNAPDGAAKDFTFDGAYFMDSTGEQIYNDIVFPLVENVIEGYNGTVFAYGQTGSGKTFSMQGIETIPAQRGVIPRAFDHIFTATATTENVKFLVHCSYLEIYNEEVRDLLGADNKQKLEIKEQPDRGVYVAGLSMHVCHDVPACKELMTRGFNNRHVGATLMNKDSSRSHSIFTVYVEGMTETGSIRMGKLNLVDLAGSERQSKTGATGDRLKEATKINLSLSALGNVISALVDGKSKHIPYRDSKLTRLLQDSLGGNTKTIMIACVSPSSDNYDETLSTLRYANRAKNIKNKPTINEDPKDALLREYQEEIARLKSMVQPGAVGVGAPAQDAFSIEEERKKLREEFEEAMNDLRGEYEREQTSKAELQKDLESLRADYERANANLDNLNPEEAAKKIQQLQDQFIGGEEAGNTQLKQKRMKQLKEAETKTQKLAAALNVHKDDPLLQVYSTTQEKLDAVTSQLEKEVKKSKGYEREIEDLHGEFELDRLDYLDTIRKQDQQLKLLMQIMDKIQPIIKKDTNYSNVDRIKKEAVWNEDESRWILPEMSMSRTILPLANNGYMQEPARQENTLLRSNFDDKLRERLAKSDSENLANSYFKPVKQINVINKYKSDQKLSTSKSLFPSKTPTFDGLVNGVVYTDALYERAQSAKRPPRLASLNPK

Substance “MmIFT-52^GFP/IFT-70^SNAP647 adaptor (from UniProt Q62559 1-426; Q99J38 1-664) (complex)” has a runlength of CeOSM-3 with MmIFT-52/IFT-70 in the single-molecule transport assay of 3 μm and a velocity of CeOSM-3 with MmIFT-52/IFT-70 in the single-molecule transport assay of 1.72 μm/s.
